Experiment [1] addresses CADM1 on small cell lung cancer cell lines H146 and H69 (human) (UniProt Q9BY67). The experiment can be described thus: flow cytometry, 1 ug scFv on 5x10^5 H146 cells, PE anti-HA. (A flow cytometer gives signals particle by particle.)
The target of experiment [2] is T1, CADM1 peptide structure expressed on cells (CADM1 peptide, Myc tag, hinge, transmembrane domain, GFP) (human).
T1 sequence: DSRAGEEGSIRAVDH
Kind of experiment: flow cytometry, 1 ug scFv on 5x10^5 cells with the CADM1 peptide structure, PE anti-HA.

Experiment [3] addresses CADM1 on small cell lung cancer cell lines H146 and H69 (human) (UniProt Q9BY67). Kind of experiment: flow cytometry, 1 ug scFv on 5x10^5 H69 cells, PE anti-HA.

B1: 4A2 (scFv, V domains shown)
VH: AVTLDESGGGLQTPGRALSLACKGSGFTFSSYAMNWVRQAPGKGLEFVAQITSSGRYTYYGTAVKGRATISRDNGQSTVRLQLNNLRAEDSGTYYCAKDAAAGYYDGATAGDIDAWGHGTEVIVSS
VL: LTQPSSVSANPGETVKITCSGGYNRYGWYQQKSPGSAPVTVIYSNNQRPSNIPSRFSGSKSGSTATLTITGVQAEDEAVYYCGSYDSSDGYAGIFGAGTTLTVL
Regarding B1, the 결합력 % was determined as 10.2% in experiment [1], 16.3% in experiment [2] and 29.1% in experiment [3].

B2: 4A8 (scFv, V domains shown)
VH: AVTLDESGGGLQTPGGGLSLVCKASGFTFSSYAMNWVRQAPGKGLEFVAQITSSGRYTYYGTAVKGRATISRDNGQSTVRLQLNNLRAEDSGTYYCAKDAAAGYYDGATAGDIDAWGHGTEVIVSS
VL: LTQPSSVSANLGGTVKITCSGGSGSNHYGWYQQKSPGSAPVTVIYSNNKRPSNIPSRFSGSKFGSTATLTITGVQADDEAVYYCGGYDSSAGYIGPFGAGTTLTVL
For B2, the 결합력 % in experiment [1] stood at 9.7%; in experiment [2] it was 14.7%; in experiment [3], 61.1%.

B3: RH6 (scFv, V domains shown)
VH: AVTLDESGGGLQTPGGGLSLVCKGSGFTFSSYAMNWVRQAPGKGLEFVAQITSSGRYTYYGTAVKGRATISRDNGQSTVRLQLNNLRAEDSGTYYCAKDAAAGYYDGATAGDIDAWGHGTEVIVSS
VL: VTQPSSVSANPGESVKITCSGGSYSYGWYQQKSPGSAPVTVIYSNNQRPSNIPSRFSGSTSGSTSTLTITGVQADDEAVYFCGTFDSSTNAAFGAGTTLTVL
In the case of B3, the 결합력 % in experiment [1] is 4.5%; in experiment [2], 15.3%; in experiment [3], 12%.

B4: RB11 (scFv, V domains shown)
VH: AVTLDESGGGLQTPGGGLSLVCKGSGFTFSSYAMNWVRQAPGKGLEFVAQITSSGRYTYYGTAVKGRATISRDNGQSTVRLQLNNLRAEDSGTYYCAKDAAAGYYDGATAGDIDAWGHGTEVIVSS
VL: LTQPSSVSANPGGTVKITCSGGSGSYGWFQQKAPGSAPVTLIYANTNRPSDIPSRFSGSKSGSTATLTITGVQVEDEAVYYCGSTDSSYVSIFGAGTTLTVL
Take B4: the values for the 결합력 % in experiment [1], in experiment [2] and in experiment [3] were 33.6%, 16% and 61.8%, respectively.

Values taken from patent publication KR20220167207A.
